This note sets out measurements from patent US20230116587A1.

This assay concerns the target RBD of the recombinantly expressed S protein (novel coronavirus SARS-CoV-2) (UniProt P0DTC2). Description: ELISA, RBD coated at 0.01 µg/ml, antibody 0.1 µg/ml, HRP anti-human IgG Fc.

As for irrelevant control antibody, the OD450 reading stood at 0.006 OD450.
